The target in assay [1] is T1, hTfR1 (recombinant, construct not specified) (human, UniProt P02786 89-760, limits assumed).
T1 construct: also called biotinylated hTfR1
The assay is described as follows: SPR (Biacore 8K), single-cycle kinetics, hTfR1 captured through its N-terminal DYKDDDDK tag, scFv injected in 5 steps (3-fold, from 700 or 400 nM). On the procedure:
Binding to hTfR1 of six different purified scFv variants from Example 24 was evaluated by surface plasmon resonance (SPR) using Biacore 8K (Cytiva). 30 μg/ml of […] Tag mAb FG4R (Thermo Fisher Scientific, MA1-91878) in 10 mM acetate buffer, pH 4.5 was immobilized on a CM5 sensor chip (Cytiva, #BR100399) using the amine coupling kit type 2 (Cytiva, #BR100633) according to the manufacturer's instruction, resulting in immobilization levels of approximately 10000 RU. hTfR1 was captured via an N-terminal […] tag. To this end, the receptor was injected over the chip with a contact time of 60 s at a flow rate of 10 μl/min. […] Interaction was measured using the single cycle kinetics method with a contact time of 120 s at a flow rate of 30 μl/min followed by a dissociation time of 600 s. Regeneration of the surface between cycles was done by injecting 10 mM glycine-HCl pH 1.7 with a contact time of 30 s and a flow rate of 30 μl/min. The binding modules were diluted in HBS-EP+ (Cytiva, #BR100669). Experiments were performed at 25° C.

In the next assay the target is T2, Aβ1-42 protofibrils (UniProt P05067 672-713).
T2 construct: range 1-42 (Aβ numbering); Soluble aggregates made from Aβ1-42 monomer
T2 sequence (P05067 672-713): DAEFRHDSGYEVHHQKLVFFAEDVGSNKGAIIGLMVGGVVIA
In words: inhibition ELISA, antigen titrated in solution, AβpE3-40 coat.

The target of assay [2] is T3, AβpE3-42 protofibrils (UniProt P05067 674-713, pyroglutamate at position 3 (N-terminal residue)).
T3 construct: range 3-42 (Aβ numbering); Soluble aggregates made from AβpE3-42 peptide, purified in the void peak of SEC; also called AβpE3-42 PF
T3 sequence (P05067 674-713): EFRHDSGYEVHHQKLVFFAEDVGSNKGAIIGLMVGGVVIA
Described as above.

In assay [3] the target is T4, AβpE3-40 monomer (UniProt P05067 674-711, pyroglutamate at position 3 (N-terminal residue)).
T4 construct: range 3-40 (Aβ numbering); Synthetic peptide (Bachem/Anaspec), verified monomeric by SEC; also called monomeric AβpE3-40
T4 sequence (P05067 674-711): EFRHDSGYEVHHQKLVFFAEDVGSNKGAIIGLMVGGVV
Described as above.

The target in another assay is T5, Aβ1-40 monomer (UniProt P05067 672-711).
T5 construct: range 1-40 (Aβ numbering)
T5 sequence (P05067 672-711): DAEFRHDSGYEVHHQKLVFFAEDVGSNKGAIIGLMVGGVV
Described as above.

For assay [4], the target named is T3, AβpE3-42 protofibrils. In words: SPR, protofibrils immobilised, antibody injected, 1:1 fit, apparent. On the procedure: (§1) Single cycle kinetics was also used to measure binding of the antibodies to AβpE3-42 protofibrils. […] Regeneration of the surface between cycles was done by injecting 30 μl 10 mM glycine-HCl pH 1.7. The binding data was fitted to a 1:1 interaction model.
(§2) In all SPR experiments, 1×HBS-EP+ (Cytiva, cat. no. BR100669) was used to dilute antibodies and target antigens. Experiments were performed at 25° C.
(§3) Affinity evaluation and KD determination by surface plasmon resonance: Binding interactions between antigens and antibodies were evaluated by SPR using a Biacore 8K instrument (Cytiva) according to standard procedures.

Assay [5] deals with T4, AβpE3-40 monomer. In words: SPR, antibody immobilised, monomer injected, 1:1 fit. On the procedure:
Single cycle kinetics with the antibodies immobilized on a CM5 chip was used to measure the binding of the antibodies to the AβpE3-40 monomer. For the measurements, 5 μg/ml of analyte antibody was immobilized on the chip. […] Regeneration of the surface between cycles was done by injecting 30 μl 3 M MgCl₂. The binding data was fitted to a 1:1 interaction model.
as §2, §3

Assay [6] addresses T3, AβpE3-42 protofibrils. The assay is described as follows: SPR, protofibrils immobilised, antibody injected, 1:1 fit, apparent; binding to AβpE3-42 protofibrils; KD in pM. How it is done:
as §1, §2, §3

The values that follow come from US20250388664A1 (BIOARCTIC, published 2025).

T1 sequence (P02786 89-760 limits assumed): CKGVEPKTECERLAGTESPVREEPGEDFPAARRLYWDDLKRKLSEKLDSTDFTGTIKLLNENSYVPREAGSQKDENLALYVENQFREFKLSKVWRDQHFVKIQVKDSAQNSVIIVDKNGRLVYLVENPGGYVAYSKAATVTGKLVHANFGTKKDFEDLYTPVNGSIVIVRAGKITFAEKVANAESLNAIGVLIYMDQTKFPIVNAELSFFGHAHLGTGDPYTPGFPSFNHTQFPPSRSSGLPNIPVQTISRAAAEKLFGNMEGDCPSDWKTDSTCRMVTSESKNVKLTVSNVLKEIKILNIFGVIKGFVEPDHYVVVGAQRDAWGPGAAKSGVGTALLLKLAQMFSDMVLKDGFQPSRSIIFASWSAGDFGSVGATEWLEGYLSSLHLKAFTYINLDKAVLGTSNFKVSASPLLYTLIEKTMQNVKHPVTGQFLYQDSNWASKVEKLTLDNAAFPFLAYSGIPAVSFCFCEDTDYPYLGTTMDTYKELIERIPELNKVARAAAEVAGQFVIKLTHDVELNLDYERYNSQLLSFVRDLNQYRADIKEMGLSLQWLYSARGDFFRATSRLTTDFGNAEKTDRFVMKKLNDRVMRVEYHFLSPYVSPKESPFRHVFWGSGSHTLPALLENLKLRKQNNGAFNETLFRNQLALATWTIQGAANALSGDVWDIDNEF

B1: h26D3-HC6 (scFv)
scFv: EVQLVQSGAEVKKPGSSVKVSCKASGYIFTDYNMDWVRQAPGQGLEWIGDINPDADTTSYNEKFKGRATLTVDKSTSTAYMELSSLRSEDTAVYYCARGGYSGSSYYHPMDYWGQGTLVTVSSGGGGSGGGGSGGGGSDIQMTQSPSSVSASVGDRVTITCKSSQSLLYSTNQKNYLAWYQQKPGKAPKLLIYWASTRESGVPSRFSGSGSGTDFTLTISSLQPEDFATYYCQQYFIYPRTFGQGTKVEIK
notes: also called scFv h26D3-HC6
On to B1, for which, in assay [1], the binding result is “binds”.

B2: h26D3-HC6_DS (scFv)
scFv: EVQLVQSGAEVKKPGSSVKVSCKASGYIFTDYNMDWVRQAPGQCLEWIGDINPDADTTSYNEKFKGRATLTVDKSTSTAYMELSSLRSEDTAVYYCARGGYSGSSYYHPMDYWGQGTLVTVSSGGGGSGGGGSGGGGSDIQMTQSPSSVSASVGDRVTITCKSSQSLLYSTNQKNYLAWYQQKPGKAPKLLIYWASTRESGVPSRFSGSGSGTDFTLTISSLQPEDFATYYCQQYFIYPRTFGCGTKVEIK
As for B2, the binding result in assay [1] is “binds”.

B3: h26D3-LC1 (scFv)
scFv: EVQLVQSGAEVKKPGSSVKVSCKASGYIFTDYNMDWVRQAPGQGLEWIGDINPDYDTTSYNEKFKGRATLTVDKSTSTAYMELSSLRSEDTAVYYCARGGYSGSSYYHPMDYWGQGTLVTVSSGGGGSGGGGSGGGGSDIQMTQSPSSVSASVGDRVTITCKSSQSLLASTNQKNYLAWYQQKPGKAPKLLIYWASTRESGVPSRFSGSGSGTDFTLTISSLQPEDFATYYCQQYFIYPRTFGQGTKVEIK
Regarding B3, the binding result in assay [1] was “binds”.

B4: h26D3-LC1_DS, VL-first (scFv)
scFv: DIQMTQSPSSVSASVGDRVTITCKSSQSLLASTNQKNYLAWYQQKPGKAPKLLIYWASTRESGVPSRFSGSGSGTDFTLTISSLQPEDFATYYCQQYFIYPRTFGCGTKVEIKGGGGSGGGGSGGGGSGGGGSEVQLVQSGAEVKKPGSSVKVSCKASGYIFTDYNMDWVRQAPGQCLEWIGDINPDYDTTSYNEKFKGRATLTVDKSTSTAYMELSSLRSEDTAVYYCARGGYSGSSYYHPMDYWGQGTLVTVSS
As to B4, the binding result in assay [1] is on record as “binds”.

B5: H2L7-K12V/R71A/R83T (antibody, human IgG1, kappa)
heavy: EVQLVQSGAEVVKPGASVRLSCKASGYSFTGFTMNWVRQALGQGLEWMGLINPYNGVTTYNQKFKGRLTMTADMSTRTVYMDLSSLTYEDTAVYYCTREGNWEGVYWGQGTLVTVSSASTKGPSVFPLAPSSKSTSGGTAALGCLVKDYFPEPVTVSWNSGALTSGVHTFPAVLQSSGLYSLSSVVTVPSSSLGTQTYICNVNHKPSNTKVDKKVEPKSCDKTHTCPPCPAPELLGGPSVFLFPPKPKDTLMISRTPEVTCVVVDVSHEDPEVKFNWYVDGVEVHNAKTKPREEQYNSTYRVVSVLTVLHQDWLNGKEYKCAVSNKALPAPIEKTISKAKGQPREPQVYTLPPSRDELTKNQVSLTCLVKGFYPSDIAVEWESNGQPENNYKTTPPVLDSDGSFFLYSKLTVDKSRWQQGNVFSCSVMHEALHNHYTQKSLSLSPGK
light: EIVLTQSPLSLSVTLGQSASISCRSSQSLLDSNGKTYLHWFILRPGQSPRRLIYLVSILDSGVPDRFSGSGSGTDFTLKISRVEAEDVGVYYCVQGTHFPFTFGSGTKLEIKRTVAAPSVFIFPPSDEQLKSGTASVVCLLNNFYPREAKVQWKVDNALQSGNSQESVTEQDSKDSTYSLSSTLTLSKADYEKHKVYACEVTHQGLSSPVTKSFNRGEC
notes: VH variant of H2L7; VL and constant domains identical to H2L7
Take B5: the IC50 in the assay with Aβ1-42 protofibrils was > 132 nM; with AβpE3-42 protofibrils [2] it was 4.9 nM; with AβpE3-40 monomer [3], 2.29 nM; in the assay with Aβ1-40 monomer, > 500 nM. In addition, the koff with AβpE3-42 protofibrils [4] is 2.45e-05 s⁻¹; in the assay with AβpE3-40 monomer [5] it was 0.000234 s⁻¹. Also, the figures for the on-rate constant (kon) in the assay with AβpE3-42 protofibrils [4] and with AβpE3-40 monomer [5] were 57600 M⁻¹ s⁻¹ and 58700 M⁻¹ s⁻¹, respectively. For the same molecule, the Kd is 4.04 nM in the assay with AβpE3-40 monomer [5] and 0.427 nM with AβpE3-42 protofibrils [6].

B6: H2L7-R71A/R83T (antibody, human IgG1, kappa)
heavy: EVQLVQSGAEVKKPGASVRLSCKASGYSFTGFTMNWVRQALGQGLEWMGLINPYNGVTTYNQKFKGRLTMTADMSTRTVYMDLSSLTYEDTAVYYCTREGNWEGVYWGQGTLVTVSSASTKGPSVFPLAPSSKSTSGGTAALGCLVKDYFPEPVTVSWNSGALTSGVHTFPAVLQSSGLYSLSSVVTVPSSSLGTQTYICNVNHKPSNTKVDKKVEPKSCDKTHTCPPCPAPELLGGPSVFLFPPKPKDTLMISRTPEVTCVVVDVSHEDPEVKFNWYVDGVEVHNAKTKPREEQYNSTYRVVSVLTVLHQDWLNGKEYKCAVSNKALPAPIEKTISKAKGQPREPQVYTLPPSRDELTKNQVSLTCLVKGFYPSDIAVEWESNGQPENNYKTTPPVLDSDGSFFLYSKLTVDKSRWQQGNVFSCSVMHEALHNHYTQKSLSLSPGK
light: EIVLTQSPLSLSVTLGQSASISCRSSQSLLDSNGKTYLHWFILRPGQSPRRLIYLVSILDSGVPDRFSGSGSGTDFTLKISRVEAEDVGVYYCVQGTHFPFTFGSGTKLEIKRTVAAPSVFIFPPSDEQLKSGTASVVCLLNNFYPREAKVQWKVDNALQSGNSQESVTEQDSKDSTYSLSSTLTLSKADYEKHKVYACEVTHQGLSSPVTKSFNRGEC
notes: as for B5
Turning to B6, the IC50 in the assay with Aβ1-42 protofibrils was > 132 nM; with AβpE3-42 protofibrils [2] it was 5.44 nM; with AβpE3-40 monomer [3], 2.77 nM; with Aβ1-40 monomer, > 500 nM. Moreover, the koff with AβpE3-42 protofibrils [4] turned out to be 2.73e-05 s⁻¹; in the assay with AβpE3-40 monomer [5], 0.000235 s⁻¹. Besides, the values for the kon in the assay with AβpE3-42 protofibrils [4] and with AβpE3-40 monomer [5] were 57400 M⁻¹ s⁻¹ and 50900 M⁻¹ s⁻¹, respectively. For the same molecule, the Kd with AβpE3-40 monomer [5] was determined as 4.72 nM; with AβpE3-42 protofibrils [6] it was 0.471 nM.

B7: H2L7-R71A (antibody, human IgG1, kappa)
heavy: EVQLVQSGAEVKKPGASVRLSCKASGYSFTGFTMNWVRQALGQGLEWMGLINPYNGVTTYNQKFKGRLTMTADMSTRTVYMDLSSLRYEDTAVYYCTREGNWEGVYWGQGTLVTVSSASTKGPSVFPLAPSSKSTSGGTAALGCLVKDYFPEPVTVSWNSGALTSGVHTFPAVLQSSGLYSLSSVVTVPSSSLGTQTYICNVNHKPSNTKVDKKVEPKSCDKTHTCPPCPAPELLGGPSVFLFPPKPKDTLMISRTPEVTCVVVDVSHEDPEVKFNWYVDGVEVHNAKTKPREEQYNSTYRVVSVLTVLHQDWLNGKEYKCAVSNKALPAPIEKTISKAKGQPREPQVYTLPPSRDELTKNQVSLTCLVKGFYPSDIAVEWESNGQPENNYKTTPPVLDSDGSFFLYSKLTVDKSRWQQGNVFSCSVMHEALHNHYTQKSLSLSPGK
light: EIVLTQSPLSLSVTLGQSASISCRSSQSLLDSNGKTYLHWFILRPGQSPRRLIYLVSILDSGVPDRFSGSGSGTDFTLKISRVEAEDVGVYYCVQGTHFPFTFGSGTKLEIKRTVAAPSVFIFPPSDEQLKSGTASVVCLLNNFYPREAKVQWKVDNALQSGNSQESVTEQDSKDSTYSLSSTLTLSKADYEKHKVYACEVTHQGLSSPVTKSFNRGEC
notes: as for B5
On to B7, for which the IC50 in the assay with Aβ1-42 protofibrils is > 132 nM; with AβpE3-42 protofibrils [2], 4.59 nM; with AβpE3-40 monomer [3], 2.54 nM; with Aβ1-40 monomer, > 500 nM. The koff in the assay with AβpE3-42 protofibrils [4] is 2.54e-05 s⁻¹; with AβpE3-40 monomer [5], 0.000225 s⁻¹. In addition, the values for the kon with AβpE3-42 protofibrils [4] and in the assay with AβpE3-40 monomer [5] were 67700 M⁻¹ s⁻¹ and 50100 M⁻¹ s⁻¹, respectively. Also, the Kd in the assay with AβpE3-40 monomer [5] amounted to 4.62 nM; with AβpE3-42 protofibrils [6], 0.376 nM.

B8: h26D3-HC6, VL-first (scFv)
scFv: DIQMTQSPSSVSASVGDRVTITCKSSQSLLYSTNQKNYLAWYQQKPGKAPKLLIYWASTRESGVPSRFSGSGSGTDFTLTISSLQPEDFATYYCQQYFIYPRTFGQGTKVEIKGGGGSGGGGSGGGGSEVQLVQSGAEVKKPGSSVKVSCKASGYIFTDYNMDWVRQAPGQGLEWIGDINPDADTTSYNEKFKGRATLTVDKSTSTAYMELSSLRSEDTAVYYCARGGYSGSSYYHPMDYWGQGTLVTVSS
As to B8, the binding result in assay [1] is listed as “binds”.
